Measurements taken from ChEMBL document CHEMBL3526024, “Oral availability of cefadroxil depends on ABCC3 and ABCC4” (Drug Metab Dispos, 2012).

Assays:
[1] = substrate: CC1=C(C(=O)O)N2C(=O)[C@@H](NC(=O)[C@H](N)c3ccc(O)cc3)[C@H]2SC1; assay: Activity of recombinant human ABCC3 expressed in baculovirus infected insect Sf21 cell plasma membrane vesicles assessed as transporter-mediated drug uptake by liquid scintillation counting analysis in presence of ATP; type: ADME
[2] = substrate: CC1=C(C(=O)O)N2C(=O)[C@@H](NC(=O)[C@H](N)c3ccc(O)cc3)[C@H]2SC1; assay: Activity of recombinant human ABCC1 expressed in baculovirus infected insect Sf21 cell plasma membrane vesicles assessed as transporter-mediated drug uptake by liquid scintillation counting analysis in presence of ATP; type: ADME
[3] = substrate: CO/N=C(\C(=O)N[C@@H]1C(=O)N2C(C(=O)O)=CCS[C@H]12)c1csc(N)n1; assay: (§1) Activity of recombinant human MRP4 expressed in adenovirus infected HEK293 cell plasma membrane vesicles assessed as transporter-mediated drug uptake after 2 mins by Michaelis-Menten plot analysis in presence of ATP; type: ADME, cell-based
[4] = substrate: Cc1nnc(SCC2=C(C(=O)O)N3C(=O)[C@@H](NC(=O)Cn4cnnn4)[C@H]3SC2)s1; assay: as §1; type: ADME, cell-based
[5] = substrate: CC1=C(C(=O)O)N2C(=O)[C@@H](NC(=O)[C@H](N)c3ccc(O)cc3)[C@H]2SC1; assay: Activity of recombinant human ABCC4 expressed in baculovirus infected insect Sf21 cell plasma membrane vesicles assessed as transporter-mediated drug uptake by liquid scintillation counting analysis in presence of ATP; type: ADME

B1: ATP-binding cassette sub-family C member 3 (Homo sapiens) (protein)
chain: MDALCGSGELGSKFWDSNLSVHTENPDLTPCFQNSLLAWVPCIYLWVALPCYLLYLRHHCRGYIILSHLSKLKMVLGVLLWCVSWADLFYSFHGLVHGRAPAPVFFVTPLVVGVTMLLATLLIQYERLQGVQSSGVLIIFWFLCVVCAIVPFRSKILLAKAEGEISDPFRFTTFYIHFALVLSALILACFREKPPFFSAKNVDPNPYPETSAGFLSRLFFWWFTKMAIYGYRHPLEEKDLWSLKEEDRSQMVVQQLLEAWRKQEKQTARHKASAAPGKNASGEDEVLLGARPRPRKPSFLKALLATFGSSFLISACFKLIQDLLSFINPQLLSILIRFISNPMAPSWWGFLVAGLMFLCSMMQSLILQHYYHYIFVTGVKFRTGIMGVIYRKALVITNSVKRASTVGEIVNLMSVDAQRFMDLAPFLNLLWSAPLQIILAIYFLWQNLGPSVLAGVAFMVLLIPLNGAVAVKMRAFQVKQMKLKDSRIKLMSEILNGIKVLKLYAWEPSFLKQVEGIRQGELQLLRTAAYLHTTTTFTWMCSPFLVTLITLWVYVYVDPNNVLDAEKAFVSVSLFNILRLPLNMLPQLISNLTQASVSLKRIQQFLSQEELDPQSVERKTISPGYAITIHSGTFTWAQDLPPTLHSLDIQVPKGALVAVVGPVGCGKSSLVSALLGEMEKLEGKVHMKGSVAYVPQQAWIQNCTLQENVLFGKALNPKRYQQTLEACALLADLEMLPGGDQTEIGEKGINLSGGQRQRVSLARAVYSDADIFLLDDPLSAVDSHVAKHIFDHVIGPEGVLAGKTRVLVTHGISFLPQTDFIIVLADGQVSEMGPYPALLQRNGSFANFLCNYAPDEDQGHLEDSWTALEGAEDKEALLIEDTLSNHTDLTDNDPVTYVVQKQFMRQLSALSSDGEGQGRPVPRRHLGPSEKVQVTEAKADGALTQEEKAAIGTVELSVFWDYAKAVGLCTTLAICLLYVGQSAAAIGANVWLSAWTNDAMADSRQNNTSLRLGVYAALGILQGFLVMLAAMAMAAGGIQAARVLHQALLHNKIRSPQSFFDTTPSGRILNCFSKDIYVVDEVLAPVILMLLNSFFNAISTLVVIMASTPLFTVVILPLAVLYTLVQRFYAATSRQLKRLESVSRSPIYSHFSETVTGASVIRAYNRSRDFEIISDTKVDANQRSCYPYIISNRWLSIGVEFVGNCVVLFAALFAVIGRSSLNPGLVGLSVSYSLQVTFALNWMIRMMSDLESNIVAVERVKEYSKTETEAPWVVEGSRPPEGWPPRGEVEFRNYSVRYRPGLDLVLRDLSLHVHGGEKVGIVGRTGAGKSSMTLCLFRILEAAKGEIRIDGLNVADIGLHDLRSQLTIIPQDPILFSGTLRMNLDPFGSYSEEDIWWALELSHLHTFVSSQPAGLDFQCSEGGENLSVGQRQLVCLARALLRKSRILVLDEATAAIDLETDNLIQATIRTQFDTCTVLTIAHRLNTIMDYTRVLVLDKGVVAEFDSPANLIAARGIFYGMARDAGLA
Question: Which results are given for B1?
Answer: Km [1]: 2500 µM; Vmax [1]: 0.0006 µmol/min

B2: Multidrug resistance-associated protein 1 (Homo sapiens) (protein)
chain: MALRGFCSADGSDPLWDWNVTWNTSNPDFTKCFQNTVLVWVPCFYLWACFPFYFLYLSRHDRGYIQMTPLNKTKTALGFLLWIVCWADLFYSFWERSRGIFLAPVFLVSPTLLGITMLLATFLIQLERRKGVQSSGIMLTFWLVALVCALAILRSKIMTALKEDAQVDLFRDITFYVYFSLLLIQLVLSCFSDRSPLFSETIHDPNPCPESSASFLSRITFWWITGLIVRGYRQPLEGSDLWSLNKEDTSEQVVPVLVKNWKKECAKTRKQPVKVVYSSKDPAQPKESSKVDANEEVEALIVKSPQKEWNPSLFKVLYKTFGPYFLMSFFFKAIHDLMMFSGPQILKLLIKFVNDTKAPDWQGYFYTVLLFVTACLQTLVLHQYFHICFVSGMRIKTAVIGAVYRKALVITNSARKSSTVGEIVNLMSVDAQRFMDLATYINMIWSAPLQVILALYLLWLNLGPSVLAGVAVMVLMVPVNAVMAMKTKTYQVAHMKSKDNRIKLMNEILNGIKVLKLYAWELAFKDKVLAIRQEELKVLKKSAYLSAVGTFTWVCTPFLVALCTFAVYVTIDENNILDAQTAFVSLALFNILRFPLNILPMVISSIVQASVSLKRLRIFLSHEELEPDSIERRPVKDGGGTNSITVRNATFTWARSDPPTLNGITFSIPEGALVAVVGQVGCGKSSLLSALLAEMDKVEGHVAIKGSVAYVPQQAWIQNDSLRENILFGCQLEEPYYRSVIQACALLPDLEILPSGDRTEIGEKGVNLSGGQKQRVSLARAVYSNADIYLFDDPLSAVDAHVGKHIFENVIGPKGMLKNKTRILVTHSMSYLPQVDVIIVMSGGKISEMGSYQELLARDGAFAEFLRTYASTEQEQDAEENGVTGVSGPGKEAKQMENGMLVTDSAGKQLQRQLSSSSSYSGDISRHHNSTAELQKAEAKKEETWKLMEADKAQTGQVKLSVYWDYMKAIGLFISFLSIFLFMCNHVSALASNYWLSLWTDDPIVNGTQEHTKVRLSVYGALGISQGIAVFGYSMAVSIGGILASRCLHVDLLHSILRSPMSFFERTPSGNLVNRFSKELDTVDSMIPEVIKMFMGSLFNVIGACIVILLATPIAAIIIPPLGLIYFFVQRFYVASSRQLKRLESVSRSPVYSHFNETLLGVSVIRAFEEQERFIHQSDLKVDENQKAYYPSIVANRWLAVRLECVGNCIVLFAALFAVISRHSLSAGLVGLSVSYSLQVTTYLNWLVRMSSEMETNIVAVERLKEYSETEKEAPWQIQETAPPSSWPQVGRVEFRNYCLRYREDLDFVLRHINVTINGGEKVGIVGRTGAGKSSLTLGLFRINESAEGEIIIDGINIAKIGLHDLRFKITIIPQDPVLFSGSLRMNLDPFSQYSDEEVWTSLELAHLKDFVSALPDKLDHECAEGGENLSVGQRQLVCLARALLRKTKILVLDEATAAVDLETDDLIQSTIRTQFEDCTVLTIAHRLNTIMDYTRVIVLDKGEIQEYGAPSDLLQQRGLFYSMAKDAGLV
Question: What does the source list for B2?
Answer: Km [2]: 3900 µM; Vmax [2]: 0.0124 µmol/min

B3: ATP-binding cassette sub-family C member 4 (Homo sapiens) (protein)
chain: MLPVYQEVKPNPLQDANLCSRVFFWWLNPLFKIGHKRRLEEDDMYSVLPEDRSQHLGEELQGFWDKEVLRAENDAQKPSLTRAIIKCYWKSYLVLGIFTLIEESAKVIQPIFLGKIINYFENYDPMDSVALNTAYAYATVLTFCTLILAILHHLYFYHVQCAGMRLRVAMCHMIYRKALRLSNMAMGKTTTGQIVNLLSNDVNKFDQVTVFLHFLWAGPLQAIAVTALLWMEIGISCLAGMAVLIILLPLQSCFGKLFSSLRSKTATFTDARIRTMNEVITGIRIIKMYAWEKSFSNLITNLRKKEISKILRSSCLRGMNLASFFSASKIIVFVTFTTYVLLGSVITASRVFVAVTLYGAVRLTVTLFFPSAIERVSEAIVSIRRIQTFLLLDEISQRNRQLPSDGKKMVHVQDFTAFWDKASETPTLQGLSFTVRPGELLAVVGPVGAGKSSLLSAVLGELAPSHGLVSVHGRIAYVSQQPWVFSGTLRSNILFGKKYEKERYEKVIKACALKKDLQLLEDGDLTVIGDRGTTLSGGQKARVNLARAVYQDADIYLLDDPLSAVDAEVSRHLFELCICQILHEKITILVTHQLQYLKAASQILILKDGKMVQKGTYTEFLKSGIDFGSLLKKDNEESEQPPVPGTPTLRNRTFSESSVWSQQSSRPSLKDGALESQDTENVPVTLSEENRSEGKVGFQAYKNYFRAGAHWIVFIFLILLNTAAQVAYVLQDWWLSYWANKQSMLNVTVNGGGNVTEKLDLNWYLGIYSGLTVATVLFGIARSLLVFYVLVNSSQTLHNKMFESILKAPVLFFDRNPIGRILNRFSKDIGHLDDLLPLTFLDFIQTLLQVVGVVSVAVAVIPWIAIPLVPLGIIFIFLRRYFLETSRDVKRLESTTRSPVFSHLSSSLQGLWTIRAYKAEERCQELFDAHQDLHSEAWFLFLTTSRWFAVRLDAICAMFVIIVAFGSLILAKTLDAGQVGLALSYALTLMGMFQWCVRQSAEVENMMISVERVIEYTDLEKEAPWEYQKRPPPAWPHEGVIIFDNVNFMYSPGGPLVLKHLTALIKSQEKVGIVGRTGAGKSSLISALFRLSEPEGKIWIDKILTTEIGLHDLRKKMSIIPQEPVLFTGTMRKNLDPFNEHTDEELWNALQEVQLKETIEDLPGKMDTELAESGSNFSVGQRQLVCLARAILRKNQILIIDEATANVDPRTDELIQKKIREKFAHCTVLTIAHRLNTIIDSDKIMVLDSGRLKEYDEPYVLLQNKESLFYKMVQQLGKAEAAALTETAKQVYFKRNYPHIGHTDHMVTNTSNGQPSTLTIFETAL
Question: What does the source list for B3?
Answer: Km [3]: 18 µM; Km [4]: 81 µM; Km [5]: 250 µM; Vmax [5]: 0.0012 µmol/min
